Patent publication US20260234222A1 (LEYDEN LABORATORIES B V, published 2026)
Like-named read-outs stand apart in the source and are kept apart here.

Legend:
Test in all cases: cell-based or functional assay
[1] = target: T1, SARS-CoV-2 Omicron BA.4/5 spike (SARS-CoV-2 Omicron BA.4/5)
[2] = target: SARS-CoV-2 Delta Spike antigen (SARS-CoV-2 Delta)
[3] = target: SARS-CoV-2 Omicron XBB.1.1 spike (SARS-CoV-2 Omicron XBB.1.1)
[4] = target: T1, SARS-CoV-2 Omicron BA.4/5 spike; remark: listed apart in the source
[5] = target: SARS-CoV-2 Delta Spike antigen (SARS-CoV-2 Delta); remark: listed apart in the source
[6] = target: T1, SARS-CoV-2 Omicron BA.4/5 spike; remark: listed apart in the source

Binder | Live virus neutralization IC50 [1] [µg/mL] | Live virus neutralization IC50 [2] [µg/mL] | Pseudovirion neutralization IC50 [3] [µg/mL] | Pseudovirion neutralization IC50 [4] [µg/mL] | Pseudovirion neutralization IC50 [5] [µg/mL] | Pseudovirion neutralization IC50 [6] [µg/mL]
Bispecific 1 (bispecific antibody) heavy 1: not shown light 1: EIVLTQSPGTLSLSPGERATLSCRASQSVRRNYFAWYQQKRGQAPRLLIYDASTRATGIPDRFSGSGSGTDFTLTISRLEPEDFAVYYCQQYDSSPPMYIFGQGTKLEIKSSASTKGPSVFPLAPSSKSTSGGTAALGCLVKDYFPEPVTVSWNSGALTSGVHTFPAVLQSSGLYSLSSVVTVPSSSLGTQTYICNVNHKPSNTKVDKKVEPKSC heavy 2: not shown light 2: QSALTQPPSASGSPGQSVTISCSGTSSDVGGYNFVSWYQHHPGKAPKILIYEVTKRPSGVPDRFSGSKSGNTASLTVSGLQAEDEADYYCSSYGGTNNLLFGGGTKLTVLGQPKAAPSVTLFPPSSEELQANKATLVCLISDFYPGAVTVAWKADSSPVKAGVETTTPSKQSNNKYAASSYLSLTPEQWKSHRSYSCQVTHEGSTVEKTVAPTECS | 4.85 | 14.2 | 11.9 | 5.14 | 0.307 | 
Parental mAb 2 (antibody, V domains shown) VH: QMQLMQSGAEVKKPGASVTVSCKASGDTFSDYRIHWVRQAPGQGLEWMGRMNPKSGDTNFAQKFQGRVTMTRDMSINTAYMTLSGLTFDDTALYYCASLLIVGGFDPLDDFEVWGQGTMVTISS VL: QSALTQPPSASGSPGQSVTISCSGTSSDVGGYNFVSWYQHHPGKAPKILIYEVTKRPSGVPDRFSGSKSGNTASLTVSGLQAEDEADYYCSSYGGTNNLLFGGGTKLTVL | 4.62 | 16.1 | 20.6 | 7.56 | 0.488 | 
Parental mAb 1 (antibody, V domains shown, also called antibody according to the invention; first parental antibody) VH: QEQLVQSGAEVKKPGASVKVSCKSSGFTFSYFYLHWVRQAPGQGLEWMGIINPRGDGTRYAQKFQGRVTMTRDASTGTLYMELRSLRSEDTAVYYCARGADHGAFDIWGQGTMVTVSS VL: EIVLTQSPGTLSLSPGERATLSCRASQSVRRNYFAWYQQKRGQAPRLLIYDASTRATGIPDRFSGSGSGTDFTLTISRLEPEDFAVYYCQQYDSSPPMYIFGQGTKLEIK | 2.92 |  | 4.85 | 4.13 |  | 4.13
